Test results from publication PMC9481538, “The interaction between LC8 and LCA5 reveals a novel oligomerization function of LC8 in the ciliary-centrosome system” (Scientific Reports, 2022).
Where no end group is shown, it is not given here. The star is where a group is joined. FITC = O=C1OC2(c3ccc(O)cc3Oc3cc(O)ccc32)c2ccc(NC(=S)*)cc21

What was measured:
[1] = target: T1, Dynein light chain LC8 (DYNLL2), 6xHis-tagged (UniProt Q96FJ2 1-89); test: ITC; MBP-fused LCA5 construct in the cell, LC8 injected, 37 injections of 1 μl; 37 °C, PBS pH 7.4, 1 mM TCEP; details: both partners purified
T1 construct: Dynein light chain LC8 (DYNLL2), an 89-residue protein; pEV vector with N-terminal 6xHis-tag; The calculated dimer mass of 20.7 kDa fits the untagged protein, so the His tag may have been removed; source: E. coli BL21 (DE3) Rosetta, purified (Ni IMAC, anion exchange on HiTrap Q-HP, SEC on Superdex 75)

[2] = target: the molecule itself; test: SEC; Superose 6 Increase 10/300, DPBS with 200 μM TCEP; LC8 or sLCA5-WT alone; masses estimated from a calibration curve
[3] = target: T1, Dynein light chain LC8 (DYNLL2), …; test: fluorescence polarisation; competitive: 50 nM FITC-BMF peptide with LC8 at 80% saturation (12 μM), titrated with LCA5 peptide from 500 μM in two-fold dilutions; 25 °C, PBS, 2 mM TCEP, 0.05% Brij; triplicates; details: both partners purified

T1 sequence (Q96FJ2 whole entry, looked up, the tested form may be a part): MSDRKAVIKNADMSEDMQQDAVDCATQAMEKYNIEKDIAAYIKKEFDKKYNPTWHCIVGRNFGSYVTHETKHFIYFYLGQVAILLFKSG

Binder | Kd [1] [nM] | stoichiometry N [2] | binding result [3]
sLCA5-ΔVQT (domain or fragment, human (cDNA library from HEK293), UniProt Q86VQ0 96-430, looked up, position 333 worked out from the printed motif limits; Made by quick-change mutagenesis from sLCA5-WT; also called ΔVQT mutant; source: E. coli BL21 (DE3) Rosetta, purified (amylose resin, IMAC); clarified lysate for the pull-down; not shown: MBP, N-terminal, kept; His6, C-terminal, kept) DTDLVTKRILSARLLKINELQNEVSELQVKLAELLKENKSLKRLQYRQEKALNKFEDAENEISQLIFRHNNEITALKERLRKSQEKERATEKRVKDTESELFRTKFSLQKLKEISEARHLPERDDLAKKLVSAELKLDDTERRIKELSKNLELSTNSFQRQLLAERKRAYEAHDENKVLQKEVQRLYHKLKEKERELDIKNIYSNRLPKSSPNKEKELALRKNAACQSDFADLCTKGAAAMEDFKPEEYPLTPETIMCYENKWEEPGHLTLDLQSQKQDRHGEAGILNPIMEREEKFVTDEELHVVKQEVEKLEDEWEREELDKKQKEKASLLER | 1220 ± 80 |  | 
sLCA5-WT (LCA5 96-430 with N-terminal MBP and C-terminal 6xHis) (domain or fragment, human (cDNA library from HEK293), UniProt Q86VQ0 96-430, looked up, Monomer of the construct 84 kDa; also called wild-type LCA5 fragment; source: E. coli BL21 (DE3) Rosetta, purified (amylose resin, IMAC); clarified lysate for the pull-down; not shown: MBP, N-terminal, kept; His6, C-terminal, kept) DTDLVTKRILSARLLKINELQNEVSELQVKLAELLKENKSLKRLQYRQEKALNKFEDAENEISQLIFRHNNEITALKERLRKSQEKERATEKRVKDTESELFRTKFSLQKLKEISEARHLPERDDLAKKLVSAELKLDDTERRIKELSKNLELSTNSFQRQLLAERKRAYEAHDENKVLQKEVQRLYHKLKEKERELDIKNIYSNRLPKSSPNKEKELALRKNAACQSDFADLCTKGVQTMEDFKPEEYPLTPETIMCYENKWEEPGHLTLDLQSQKQDRHGEAGILNPIMEREEKFVTDEELHVVKQEVEKLEDEWEREELDKKQKEKASLLER | 760 ± 60 | ~4 | 
sLCA5-ΔCQS (domain or fragment, human (cDNA library from HEK293), UniProt Q86VQ0 96-430, looked up, position 321 worked out from the printed motif limits; Made by quick-change mutagenesis from sLCA5-WT; also called ΔCQS mutant; source: E. coli BL21 (DE3) Rosetta, purified (amylose resin, IMAC); clarified lysate for the pull-down; not shown: MBP, N-terminal, kept; His6, C-terminal, kept) DTDLVTKRILSARLLKINELQNEVSELQVKLAELLKENKSLKRLQYRQEKALNKFEDAENEISQLIFRHNNEITALKERLRKSQEKERATEKRVKDTESELFRTKFSLQKLKEISEARHLPERDDLAKKLVSAELKLDDTERRIKELSKNLELSTNSFQRQLLAERKRAYEAHDENKVLQKEVQRLYHKLKEKERELDIKNIYSNRLPKSSPNKEKELALRKNAAAAADFADLCTKGVQTMEDFKPEEYPLTPETIMCYENKWEEPGHLTLDLQSQKQDRHGEAGILNPIMEREEKFVTDEELHVVKQEVEKLEDEWEREELDKKQKEKASLLER | 680 ± 80 |  | 
{FITC}-TSQEDKATQTL (also called BMF peptide; fluorescein labeled BMF peptide) [FITC-labelled BMF (Bcl-2-modifying factor) peptide (TSQEDKATQTL)] |  |  | binds
